B1: U6 promoter crystallization DNA (dsDNA)
DNA 1: TTGAAGGGCTTAAAATAGGTGTGAC
DNA 2: GGTCACACCTATTTTAAGCCCTTCAAC
B2: U6_2 PSE probe (dsDNA)
DNA 1: CCATAAGTTATCCTAACCAAAAGATGATTTGA
DNA 2: TCAAATCATCTTTTGGTTAGGATAACTTATGG
B3: U6_2 TATA EMSA probe (dsDNA)
DNA 1: ATTTGATTGAAGGGCTTAAAATAGGTGTGACAGTAACC
DNA 2: GGTTACTGTCACACCTATTTTAAGCCCTTCAATCAAAT
B4: TBP (159-339) (domain or fragment, human, UniProt P20226 159-339, looked up)
chain: SGIVPQLQNIVSTVNLGCKLDLKTIALRARNAEYNPKRFAAVIMRIREPRTTALIFSSGKMVCTGAKSEEQSRLAARKYARVVQKLGFPAKFLDFKIQNMVGSCDVKFPIRLEGLVLTHQQFSSYEPELFPGLIYRMIKPRIVLLIFVSGKVVLTGAKVRAEIYEAFENIYPILKGFRKTT
notes: source: E. coli Rosetta (DE3)pLysS, purified (HisTrap, heparin, 3C cleavage, SEC)
B5: U6 snRNA promoter smFRET DNA (dsDNA)
DNA 1: CGGACCAAGATGATTTGATTGAAGGGCTTAAAATAGGTGTGAGAGTAACCCTTGA
DNA 2: TCAAGGGTTACTCTCACACCTATTTTAAGCCCTTCAATCAAATCATCTTGGTCCG
B6: Bdp1SANT, human Bdp1 extended SANT domain (residues 241-396), affinity tag removed for crystallization (domain or fragment, UniProt A6H8Y1 241-396, looked up)
chain: GPLLVPRVKVAEDGSIILDEESLTVEVLRTKGPCVVEENDPIFERGSTTTYSSFRKNYYSKPWSNKETDMFFLAISMVGTDFSMIGQLFPHRARIEIKNKFKREEKTNGWRIDKAFQEKRPFDFDFFAHLLQKVLAEEEKRKQKSVKNHSLKEKKS
notes: Bdp1, human, extended SANT domain, residues 241-396; residues 286-382 are built in the electron density; Cloned into pOPINF (cleavable N-terminal His-tag); tag removed with 3C protease for crystallization; source: E. coli BL21-CodonPlus (DE3)-RIL, purified (Ni-NTA, 3C cleavage, heparin, SEC); not shown: His tag, N-terminal, cleaved
B7: Bdp1SANT, human Bdp1 extended SANT domain (residues 241-396), His-tagged (domain or fragment, UniProt A6H8Y1 241-396, looked up)
chain: B6 chain
notes: Bdp1, human, extended SANT domain, residues 241-396; The tag is kept in the pull-down (held on His SpinTrap); it tells of cleavage only for crystallization; source: E. coli BL21-CodonPlus (DE3)-RIL, purified (Ni-NTA, heparin, SEC); not shown: His tag, N-terminal, kept

Columns and labels:
[1] = target: T1, TBP (core);Brf2 (62-419);Bdp1SANT (Homo sapiens;Homo sapiens;Homo sapiens, UniProt P20226;Q9HAW0;A6H8Y1 159-339;62-419;241-396, ||); assay: X-ray crystallography; 2.7 A; EMSA: 500 mM ammonium acetate, 50 mM HEPES pH 7.9, 10% glycerol, 1 mM TCEP, 21 °C 20 min, diluted twofold (100 mM ammonium acetate, 40% glycerol) before loading; SNAPc EMSA: 500 mM NaCl, 50 mM HEPES pH 7.9, 20% glycerol, 1 mM TCEP, 21 °C; smFRET lifetimes: T78 buffer, 1 mM DTT, room temperature; conditions: protein: recombinant;recombinant;recombinant; tags: His-tag cleaved (3C);N-terminal His-tag cleaved (3C);N-terminal His, cleavable; cleaved for crystallization; copies: 1;1;1; 25 bp; template strand S1 has 1 nt 5' and 1 nt 3' overhang
T1 sequence (Q9HAW0 62-419, one chain of several): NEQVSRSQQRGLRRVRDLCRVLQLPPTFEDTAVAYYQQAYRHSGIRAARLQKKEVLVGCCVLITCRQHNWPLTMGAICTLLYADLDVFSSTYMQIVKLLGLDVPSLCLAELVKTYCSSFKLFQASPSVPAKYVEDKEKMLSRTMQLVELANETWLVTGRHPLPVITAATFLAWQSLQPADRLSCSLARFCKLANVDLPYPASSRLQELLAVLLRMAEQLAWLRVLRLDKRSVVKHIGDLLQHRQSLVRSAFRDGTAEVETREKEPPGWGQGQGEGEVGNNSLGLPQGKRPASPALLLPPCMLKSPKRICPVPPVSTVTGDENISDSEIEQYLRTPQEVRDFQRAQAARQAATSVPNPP

SNAPcΔ;Bdp1-WT = SNAPcΔ;Bdp1-WT (Homo sapiens?;Homo sapiens, UniProt Q5SXM2;Q92966;Q16533;O75971;A6H8Y1 1-516;1-411;1-368;1-98;1-484, |); assay: EMSA; Bdp1 binding to SNAPc-DNA; EMSA: 500 mM ammonium acetate, 50 mM HEPES pH 7.9, 10% glycerol, 1 mM TCEP, 21 °C 20 min, diluted twofold (100 mM ammonium acetate, 40% glycerol) before loading; SNAPc EMSA: 500 mM NaCl, 50 mM HEPES pH 7.9, 20% glycerol, 1 mM TCEP, 21 °C; smFRET lifetimes: T78 buffer, 1 mM DTT, room temperature; conditions: protein: recombinant;recombinant; tags: N-terminal Strep on SNAPc190Δ; His cleaved from SNAPc50;C-terminal His (uncleavable); copies: 1;1;1;1;1; blunt
SNAPcΔ;Bdp1SANT = SNAPcΔ;Bdp1SANT (Homo sapiens?;Homo sapiens, UniProt Q5SXM2;Q92966;Q16533;O75971;A6H8Y1 1-516;1-411;1-368;1-98;241-396, |); assay: EMSA; Bdp1SANT not recruited to SNAPc-DNA; not loss of SNAPc-DNA binding; EMSA: 500 mM ammonium acetate, 50 mM HEPES pH 7.9, 10% glycerol, 1 mM TCEP, 21 °C 20 min, diluted twofold (100 mM ammonium acetate, 40% glycerol) before loading; SNAPc EMSA: 500 mM NaCl, 50 mM HEPES pH 7.9, 20% glycerol, 1 mM TCEP, 21 °C; smFRET lifetimes: T78 buffer, 1 mM DTT, room temperature; conditions: protein: recombinant;recombinant; tags: N-terminal Strep on SNAPc190Δ; His cleaved from SNAPc50;N-terminal His, cleavable; cleaved for crystallization; copies: 1;1;1;1;1; blunt
SNAPcΔ;Bdp1SANT, sequence (Q5SXM2 1-516, stated change not applied, chain 1 of 4): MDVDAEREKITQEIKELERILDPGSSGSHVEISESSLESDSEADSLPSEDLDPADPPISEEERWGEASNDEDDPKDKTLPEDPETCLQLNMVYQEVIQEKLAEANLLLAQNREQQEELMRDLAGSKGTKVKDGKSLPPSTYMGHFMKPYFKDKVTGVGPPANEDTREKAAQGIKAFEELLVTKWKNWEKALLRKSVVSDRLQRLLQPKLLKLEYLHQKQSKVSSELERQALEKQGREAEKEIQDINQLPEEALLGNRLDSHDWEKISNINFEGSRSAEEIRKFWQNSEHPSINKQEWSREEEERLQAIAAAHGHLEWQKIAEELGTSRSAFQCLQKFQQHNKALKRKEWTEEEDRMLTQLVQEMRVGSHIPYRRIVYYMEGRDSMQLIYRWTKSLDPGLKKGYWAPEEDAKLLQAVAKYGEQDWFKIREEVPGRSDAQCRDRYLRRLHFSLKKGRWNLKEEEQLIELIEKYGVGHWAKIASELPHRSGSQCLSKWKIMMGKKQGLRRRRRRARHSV
SNAPcΔ;Bdp1SANT, sequence (Q92966 whole entry, stated change not applied, chain 2 of 4): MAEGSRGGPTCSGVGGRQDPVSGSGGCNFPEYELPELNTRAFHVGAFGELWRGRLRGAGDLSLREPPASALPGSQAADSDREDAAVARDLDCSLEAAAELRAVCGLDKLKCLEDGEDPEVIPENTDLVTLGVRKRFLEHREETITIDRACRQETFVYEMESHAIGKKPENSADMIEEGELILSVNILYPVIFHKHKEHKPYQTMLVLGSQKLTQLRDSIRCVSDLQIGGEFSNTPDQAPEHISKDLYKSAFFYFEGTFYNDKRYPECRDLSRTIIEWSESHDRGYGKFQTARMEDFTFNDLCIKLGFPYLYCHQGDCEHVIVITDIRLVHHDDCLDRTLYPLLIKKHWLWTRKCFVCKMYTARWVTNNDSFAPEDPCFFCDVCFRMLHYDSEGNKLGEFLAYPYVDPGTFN
SNAPcΔ;Bdp1SANT, sequence (Q16533 whole entry, stated change not applied, chain 3 of 4): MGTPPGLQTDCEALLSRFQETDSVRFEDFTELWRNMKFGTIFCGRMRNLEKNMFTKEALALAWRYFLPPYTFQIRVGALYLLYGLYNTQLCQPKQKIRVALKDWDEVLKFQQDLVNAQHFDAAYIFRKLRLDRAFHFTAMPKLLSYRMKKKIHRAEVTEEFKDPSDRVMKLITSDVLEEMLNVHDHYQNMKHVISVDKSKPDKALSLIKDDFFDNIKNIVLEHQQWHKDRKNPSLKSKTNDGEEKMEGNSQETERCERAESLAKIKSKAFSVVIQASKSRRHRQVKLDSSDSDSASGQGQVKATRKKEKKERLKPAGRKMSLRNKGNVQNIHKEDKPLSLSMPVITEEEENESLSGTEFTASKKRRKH
SNAPcΔ;Bdp1SANT, sequence (O75971 whole entry, stated change not applied, chain 4 of 4): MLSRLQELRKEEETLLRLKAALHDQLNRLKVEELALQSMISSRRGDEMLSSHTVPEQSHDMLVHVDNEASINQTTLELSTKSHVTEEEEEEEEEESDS

TBP (core);Brf2 (62-419) [2] = target: T2, TBP (core);Brf2 (62-419) (Homo sapiens;Homo sapiens, UniProt P20226;Q9HAW0 159-339;62-419, |); assay: competition; 0-200x unlabelled same-sequence DNA; less stable than with Bdp1SANT; EMSA: 500 mM ammonium acetate, 50 mM HEPES pH 7.9, 10% glycerol, 1 mM TCEP, 21 °C 20 min, diluted twofold (100 mM ammonium acetate, 40% glycerol) before loading; SNAPc EMSA: 500 mM NaCl, 50 mM HEPES pH 7.9, 20% glycerol, 1 mM TCEP, 21 °C; smFRET lifetimes: T78 buffer, 1 mM DTT, room temperature; conditions: protein: recombinant;recombinant; tags: His-tag cleaved (3C);N-terminal His-tag cleaved (3C); copies: 1;1; label: 5' Cy5 on strand 1; blunt
T2 sequence (Q9HAW0 62-419, one chain of several): as the sequence (Q9HAW0 62-419, one chain of several) above

[3] = target: T1, TBP (core);Brf2 (62-419);Bdp1SANT; assay: EMSA; similar affinity to longer Bdp1 constructs; EMSA: 500 mM ammonium acetate, 50 mM HEPES pH 7.9, 10% glycerol, 1 mM TCEP, 21 °C 20 min, diluted twofold (100 mM ammonium acetate, 40% glycerol) before loading; SNAPc EMSA: 500 mM NaCl, 50 mM HEPES pH 7.9, 20% glycerol, 1 mM TCEP, 21 °C; smFRET lifetimes: T78 buffer, 1 mM DTT, room temperature; conditions: protein: recombinant;recombinant;recombinant; tags: His-tag cleaved (3C);N-terminal His-tag cleaved (3C);N-terminal His, cleavable; cleaved for crystallization; copies: 1;1;1; label: 5' Cy5 on strand 1; blunt
Brf2 (62-419) = target: T3, Brf2 (62-419) (human, UniProt Q9HAW0 62-419); assay: crystal structure; Brf2 (62-419), TBP (159-339) and Bdp1SANT with 25 bp of the human U6 promoter; complex at 60 uM, equimolar TBP and Brf2, 1.1 molar excess of Bdp1SANT, 1.2 excess of dsDNA; hanging drop, PEG 8000, KCl, MES pH 6.5, MgCl2; 2.7 Å; conditions: both partners purified
T3 construct: Brf2 (TFIIB-related factor II), human, residues 62-419; also called TFIIB-related factor II; source: E. coli Rosetta (DE3)pLysS, co-expressed with TBP, purified in isolation (HisTrap, heparin, 3C cleavage, SEC); not shown: His tag, N-terminal, cleaved
T3 sequence (Q9HAW0 62-419): as the sequence (Q9HAW0 62-419, one chain of several) above

TBP (core) = TBP (core) (Homo sapiens, UniProt P20226 159-339); assay: smFRET; 10 nM TBP; complex lifetime 0.29 s; EMSA: 500 mM ammonium acetate, 50 mM HEPES pH 7.9, 10% glycerol, 1 mM TCEP, 21 °C 20 min, diluted twofold (100 mM ammonium acetate, 40% glycerol) before loading; SNAPc EMSA: 500 mM NaCl, 50 mM HEPES pH 7.9, 20% glycerol, 1 mM TCEP, 21 °C; smFRET lifetimes: T78 buffer, 1 mM DTT, room temperature; conditions: protein: recombinant; tags: His-tag cleaved (3C); label: internal ATTO 532 donor and ATTO 647N acceptor; immobilized in TIRF assay; blunt
TBP (core);Brf2 (62-419) [4] = target: T2, TBP (core);Brf2 (62-419); assay: smFRET; complex lifetime 381 ± 33 s (heparin trap); EMSA: 500 mM ammonium acetate, 50 mM HEPES pH 7.9, 10% glycerol, 1 mM TCEP, 21 °C 20 min, diluted twofold (100 mM ammonium acetate, 40% glycerol) before loading; SNAPc EMSA: 500 mM NaCl, 50 mM HEPES pH 7.9, 20% glycerol, 1 mM TCEP, 21 °C; smFRET lifetimes: T78 buffer, 1 mM DTT, room temperature; conditions: protein: recombinant;recombinant; tags: His-tag cleaved (3C);N-terminal His-tag cleaved (3C); copies: 1;1; label: internal ATTO 532 donor and ATTO 647N acceptor; immobilized in TIRF assay; blunt
[5] = target: T1, TBP (core);Brf2 (62-419);Bdp1SANT; assay: smFRET; complex lifetime 547 ± 87 s (heparin trap); EMSA: 500 mM ammonium acetate, 50 mM HEPES pH 7.9, 10% glycerol, 1 mM TCEP, 21 °C 20 min, diluted twofold (100 mM ammonium acetate, 40% glycerol) before loading; SNAPc EMSA: 500 mM NaCl, 50 mM HEPES pH 7.9, 20% glycerol, 1 mM TCEP, 21 °C; smFRET lifetimes: T78 buffer, 1 mM DTT, room temperature; conditions: protein: recombinant;recombinant;recombinant; tags: His-tag cleaved (3C);N-terminal His-tag cleaved (3C);N-terminal His, cleavable; cleaved for crystallization; copies: 1;1;1; label: internal ATTO 532 donor and ATTO 647N acceptor; immobilized in TIRF assay; blunt
[6] = target: T4, Brf2–TBP complex on U6 promoter DNA (Brf2–TBP–DNA complex) (human, UniProt Q9HAW0 62-419; P20226 159-339); assay: crystal structure; Brf2 (62-419), TBP (159-339) and Bdp1SANT with 25 bp of the human U6 promoter; complex at 60 uM, equimolar TBP and Brf2, 1.1 molar excess of Bdp1SANT, 1.2 excess of dsDNA; hanging drop, PEG 8000, KCl, MES pH 6.5, MgCl2; 2.7 Å; conditions: both partners purified
T4 construct: Brf2 (TFIIB-related factor II), human, residues 62-419; The complex stands on double-stranded U6 promoter DNA in every experiment (Cy5-labelled U6_2 38-mer in EMSA; 25 bp fragment with overhangs in the crystal); Bdp1 also contacts the DNA; also called TBP–Brf2; source: E. coli Rosetta (DE3)pLysS, each protein purified, assembled with double-stranded U6 promoter DNA; not shown: His tag, …
T4 sequence (Q9HAW0 62-419, one chain of several): as above

TBP (159-339) = target: B4; assay: as above; conditions: both partners purified
[7] = target: T4, Brf2–TBP complex on U6 promoter DNA …; assay: native gel or EMSA; 1.5 pmol Cy5-labelled U6_2 dsDNA, 5 pmol TBP (159-339), 7 pmol Brf2 (62-419), 10 pmol Bdp1 construct in 20 ul; 500 mM ammonium acetate, 50 mM HEPES pH 7.9, 10% glycerol, 1 mM TCEP; 21 °C, 20 min; 4.5% polyacrylamide gel; conditions: both partners purified

Binder: B1
binding result [1]: binds

Binder: B2
binding result (SNAPcΔ;Bdp1-WT): binds
binding result (SNAPcΔ;Bdp1SANT): no binding

Binder: B3
binding result (TBP (core);Brf2 (62-419) [2]): binds
binding result [3]: binds

Binder: B4
binding result (Brf2 (62-419)): binds

Binder: B5
binding result (TBP (core)): binds
binding result (TBP (core);Brf2 (62-419) [4]): binds
binding result [5]: binds

Binder: B6
binding result [6]: binds
binding result (Brf2 (62-419)): binds
binding result (TBP (159-339)): binds

Binder: B7
binding result [7]: binds

Source: paper PMC5526994 (Nature Communications, 2017)
